# From patent publication EP4563159A1
# Molecular target: secretory IgA from human colostrum (human) (UniProt P11912)
# Experiment: solid-phase IgA binding assay (ELISA): streptavidin-peptide conjugate coated, secretory IgA from human colostrum titrated, anti-human IgA-HRP detection
# Chain of UniProt P11912 (P11912 whole entry): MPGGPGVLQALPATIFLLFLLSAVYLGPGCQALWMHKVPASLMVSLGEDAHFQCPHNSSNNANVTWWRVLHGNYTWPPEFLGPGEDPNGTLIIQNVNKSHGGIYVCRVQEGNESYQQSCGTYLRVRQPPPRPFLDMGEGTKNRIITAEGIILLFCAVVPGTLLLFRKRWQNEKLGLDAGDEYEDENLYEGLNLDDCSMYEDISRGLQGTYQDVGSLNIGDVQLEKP
row,EC50 [nM],Binder
1,900,KMVCLAYRGRPVCFPT (cyclized; carboxy terminal PEG linker and a biotin tag) [IgA binding peptide … (SEQ ID NO 35)]
2,900,HSVCLAYRGRPVCFPT (cyclized; carboxy terminal PEG linker and a biotin tag) [IgA binding peptide … (SEQ ID NO 36)]
